Experimental data taken from article PMC3888030 (Journal of immunology (Baltimore, Md. : 1950), 2013).
Read-outs that look alike come from different tables or passages of the source.

Assays:
[1] = test system: IVS T cells from vaccinated melanoma patients; type: cell-based, human
HLA-DR4 = conditions: cited from earlier work
[2] = target: purified HLA-DR4 (HLA-DRB1*0401) (human); test: radioligand binding

Molecule	IC50 [2] [nM]	other results
PKYVKQNTLKLAT [HA307–319]	–	Background IFN-γ secretion by T cells stimulated with APC + control peptide ([1]; Patient #2, 1 μM peptide stimulation): 213 pg/mL; Background IFN-γ secretion by T cells stimulated with APC + control peptide ([1]; Patient #2, 10 μM peptide stimulation): 208 pg/mL; Background IFN-γ secretion by T cells stimulated with APC + control peptide ([1]; Patient #4, 1 μM peptide stimulation): 187 pg/mL; Background IFN-γ secretion by T cells stimulated with APC + control peptide ([1]; Patient #4, 10 μM peptide stimulation): 191 pg/mL; Background IFN-γ secretion by T cells stimulated with APC + control peptide ([1]; Patient #5, 1 μM peptide stimulation): 346 pg/mL; Background IFN-γ secretion by T cells stimulated with APC + control peptide ([1]; Patient #5, 10 μM peptide stimulation): 388 pg/mL; affinity for HLA-DR4 (HLA-DR4): high affinity
MBP111–129: self peptide from myelin basic protein (PSESDELQTIQEDSAATSE; UniProt P02686 111-129, looked up, fragment)	–	affinity for HLA-DR4 (HLA-DR4): binds weakly
WNRQFYPEWTEAQRLD [gp100 44-59 APL L48F]	280	–
WNRQLYPEWVEAQRLD [gp100 44-59 APL T53V]	489	–
WNRQLYPEWTEGQRLD [gp100 44-59 APL A55G]	553	–
WNRQLYPEWTLAQRLD [gp100 44-59 APL E54L]	65	–
WNRQLYAEWTEAQRLD [gp100 44-59 APL P50A]	189	–
WNRQLYPEATEAQRLD [gp100 44-59 APL W52A]	372	–
WNRQLYPEWTEAARLD [gp100 44-59 APL Q56A]	276	–
WNRQLYPEWTTAQRLD [gp100 44-59 APL E54T]	104	–
WNRQLYPAWTEAQRLD [gp100 44-59 APL E51A]	199	–
